Experimental data published in article PMC10801496.

Legend:
CD47 (Homo sapiens) = CD47 (Homo sapiens) (UniProt Q08722); conditions: cited from earlier work
[1] = target: human CD47 with His tag (human) (UniProt Q08722); assay: ELISA; competition with SIRPa-Fc
Sequence of human CD47 with His tag (human) (Q08722 19-323): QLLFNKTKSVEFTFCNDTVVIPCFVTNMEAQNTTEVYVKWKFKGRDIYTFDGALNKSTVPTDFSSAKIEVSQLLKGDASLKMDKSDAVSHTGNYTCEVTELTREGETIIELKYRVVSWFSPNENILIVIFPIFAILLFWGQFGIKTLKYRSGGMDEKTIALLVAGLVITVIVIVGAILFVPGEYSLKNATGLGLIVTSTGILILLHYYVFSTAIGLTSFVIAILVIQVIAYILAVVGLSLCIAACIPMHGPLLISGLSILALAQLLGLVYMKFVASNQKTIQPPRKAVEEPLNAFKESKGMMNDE

Sequence of SIRPα (P97797 32-373): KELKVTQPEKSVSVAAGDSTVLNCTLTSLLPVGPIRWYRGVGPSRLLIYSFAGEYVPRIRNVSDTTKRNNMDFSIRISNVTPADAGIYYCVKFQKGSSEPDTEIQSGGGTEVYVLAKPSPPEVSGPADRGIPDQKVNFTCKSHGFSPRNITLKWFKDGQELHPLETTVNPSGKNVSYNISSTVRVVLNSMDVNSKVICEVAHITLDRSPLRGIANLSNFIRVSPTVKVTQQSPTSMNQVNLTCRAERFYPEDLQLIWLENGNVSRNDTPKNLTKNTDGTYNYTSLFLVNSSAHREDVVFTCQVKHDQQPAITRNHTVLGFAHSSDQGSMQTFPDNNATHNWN
Sequence of CD47 (Homo sapiens) (Q08722 19-323): as the sequence (Q08722 19-323) above

| IC50 [1] [nM] | Substance | Kd (CD47 (Homo sapiens)) [nM] |
| --- | --- | --- |
|  | SIRPα (from UniProt P97797) | 300 |
| 233 | B6H12.2 |  |
